# Laboratory results as given in PMC4169579 (2014).
# Positions of bridges follow the written chain, without caps; N, C: chain ends. No end group written: not given here.
# B1: 12-amino acid cyclic peptide B2 (without C-terminal amidation) (peptide)
# peptide: CVFAHNYDYLVC-OH
# modifications: disulfide 1-12; N-terminus assumed
# SMILES: CC(C)C[C@@H]1NC(=O)[C@H](Cc2ccc(O)cc2)NC(=O)[C@H](CC(=O)O)NC(=O)[C@H](Cc2ccc(O)cc2)NC(=O)[C@H](CC(N)=O)NC(=O)[C@H](Cc2c[nH]cn2)NC(=O)[C@H](C)NC(=O)[C@H](Cc2ccccc2)NC(=O)[C@H](C(C)C)NC(=O)[C@@H](N)CSSC[C@@H](C(=O)O)NC(=O)[C@H](C(C)C)NC1=O
# Target: Prostate-specific antigen (PSA or kallikrein-related peptidase-3, KLK3), major form of active PSA (isoform … (human, UniProt P07288 25-261))
# Test: SPR
# Prostate-specific antigen (PSA or kallikrein-related peptidase-3, KLK3), major form of active PSA (isoform …, sequence (P07288 25-261): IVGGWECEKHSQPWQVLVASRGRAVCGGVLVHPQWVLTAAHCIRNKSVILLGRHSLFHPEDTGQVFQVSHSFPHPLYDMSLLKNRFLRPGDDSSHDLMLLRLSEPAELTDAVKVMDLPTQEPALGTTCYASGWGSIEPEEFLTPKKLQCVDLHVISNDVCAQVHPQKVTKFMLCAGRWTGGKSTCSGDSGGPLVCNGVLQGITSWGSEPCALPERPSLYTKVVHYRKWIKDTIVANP
binder,measurement,value
B1,Kd,56.1 µM
